Results on nine molecules are retold here after PMC9418313, “Multivalent interactions between molecular components involved in fast endophilin mediated endocytosis drive protein phase separation” (Nature Communications, 2022).

Sequences and labels used below:
B6: full-length rat endophilin A1 (single-cysteine form) (natural protein, UniProt O35179 1-352, looked up)
chain: MSVAGLKKQFHKATQKVSEKVGGAEGTKLDDDFKEMERKVDVTSRAVMEIMTKTIEYLQPNPASRAKLSMINTMSKIRGQEKGPGYPQAEALLAEAMLKFGRELGDDSNFGPALGEVGEAMRELSEVKDSLDMEVKQNFIDPLQNLHDKDLREIQHHLKKLEGRRLDFDYKKKRQGKIPDEELRQALEKFDESKEIAESSMFNLLEMDIEQVSQLSALVQAQLEYHKQAVQILQQVTVRLCERIRQASSQPRREYQPKPRMSLEFATGDGTQPNGGLSHTGTPKPAGVQMDQPSSRALYDFEPENEGELGFKEGDIITLTNQIDENWYEGMLHGQSGFFPINYVEILVALPH
modifications: Alexa 594 or Alexa 488 C5-maleimide on the small labelled fraction (about 4-10 mol%) mixed with unlabelled protein
notes: endophilin A1, rat, full length, mutated to a single-cysteine form for labeling; also called A1 isoform of endophilin, from rat; full-length endophilin

Series [1] concerns the target full-length rat endophilin A1 (single-cysteine form) (rat) (UniProt O35179).
Series [2] has the same target. The series can be described thus: client partitioning into condensate droplets (confocal microscopy, apparent partition coefficient); endophilin (25 µM) droplets with 10% PEG; Alexa-labeled client at 250 nM to 1 µM mixed in before PEG; 20 mM HEPES, 150 mM NaCl, 1 mM TCEP, pH 7.4, room temperature; apparent.
For series [3], the target named is endophilin N-BAR-only mutant (rat). The series can be described thus: fluorescence intensity ratio of droplets vs. bulk solution (confocal microscopy); 1 µM Alexa 594-labeled variant with 25 µM of the same unlabeled variant, 10% PEG.
In series [4] the target is B6. The experiment in a line: cell-based or functional assay.
Series [5] has as its target B6. The series can be described thus: client partitioning into condensate droplets (confocal microscopy, apparent partition coefficient); endophilin (25 µM) droplets with 10% PEG; Alexa-labeled client at 250 nM to 1 µM mixed in before PEG; 20 mM HEPES, 150 mM NaCl, 1 mM TCEP, pH 7.4, room temperature; apparent. The settings on record: both partners purified.
Series [6] concerns the molecule itself. The series can be described thus: fluorescence intensity ratio of droplets vs. bulk solution (confocal microscopy); 1 µM Alexa 594-labeled variant with 25 µM of the same unlabeled variant, 10% PEG.

In the case of “PRM7-His: heptameric repeat of a lamellipodin proline-rich motif (aa 970–981) joined by (Gly-Gly-Ser)4 linkers (from UniProt Q70E73 970-981; Q70E73 970-981; Q70E73 970-981; Q70E73 970-981; Q70E73 970-981; Q70E73 970-981; Q70E73 970-981) (designed binder)”, the threshold endophilin concentration for LLPS (10% PEG) in the presence of 10 µM client (10 µM without client) in series [1] is less than 5 µM. In addition, the apparent partition coefficient (Kapp) in series [2] turned out to be 26. With “endophilin N-BAR-only mutant (domain or fragment)”, in series [3], the fluorescence intensity ratio inside vs. outside droplets came out at 1800. As to BIN1 isoform 9 (natural protein), the apparent partition coefficient (Kapp) in series [2] is 267.

B1: FBP17 (natural protein, UniProt Q96RU3 1-617, looked up)
chain: MSWGTELWDQFDNLEKHTQWGIDILEKYIKFVKERTEIELSYAKQLRNLSKKYQPKKNSKEEEEYKYTSCKAFISNLNEMNDYAGQHEVISENMASQIIVDLARYVQELKQERKSNFHDGRKAQQHIETCWKQLESSKRRFERDCKEADRAQQYFEKMDADINVTKADVEKARQQAQIRHQMAEDSKADYSSILQKFNHEQHEYYHTHIPNIFQKIQEMEERRIVRMGESMKTYAEVDRQVIPIIGKCLDGIVKAAESIDQKNDSQLVIEAYKSGFEPPGDIEFEDYTQPMKRTVSDNSLSNSRGEGKPDLKFGGKSKGKLWPFIKKNKLMSLLTSPHQPPPPPPASASPSAVPNGPQSPKQQKEPLSHRFNEFMTSKPKIHCFRSLKRGLSLKLGATPEDFSNLPPEQRRKKLQQKVDELNKEIQKEMDQRDAITKMKDVYLKNPQMGDPASLDHKLAEVSQNIEKLRVETQKFEAWLAEVEGRLPARSEQARRQSGLYDSQNPPTVNNCAQDRESPDGSYTEEQSQESEMKVLATDFDDEFDDEEPLPAIGTCKALYTFEGQNEGTISVVEGETLYVIEEDKGDGWTRIRRNEDEEGYVPTSYVEVCLDKNAKDS
modifications: Alexa 488 C5-maleimide
notes: Obtained from Harvey McMahon's lab; also called F-BAR family protein FBP17; FBP17 (Alexa 488); source: E. coli BL21-CodonPlus(DE3)-RIL, purified (GSTrap, size exclusion)
As to B1, the “threshold endophilin concentration for LLPS (10% PEG) in the presence of 10 µM client (10 µM without client)” value in series [4] worked out at 15 µM. For the same molecule, the “apparent partition coefficient (Kapp)” value in series [5] worked out at 1130.

B2: endophilin ΔH0 mutant (domain or fragment)
chain: GGAEGTKLDDDFKEMERKVDVTSRAVMEIMTKTIEYLQPNPASRAKLSMINTMSKIRGQEKGPGYPQAEALLAEAMLKFGRELGDDCNFGPALGEVGEAMRELSEVKDSLDMEVKQNFIDPLQNLHDKDLREIQHHLKKLEGRRLDFDYKKKRQGKIPDEELRQALEKFDESKEIAESSMFNLLEMDIEQVSQLSALVQAQLEYHKQAVQILQQVTVRLEERIRQASSQPRREYQPKPRMSLEFATGDGTQPNGGLSHTGTPKPAGVQMDQPCCRALYDFEPENEGELGFKEGDIITLTNQIDENWYEGMLHGQSGFFPINYVEILVALPH
modifications: Alexa 594 C5-maleimide on the labelled fraction
For the molecule B2, the “fluorescence intensity ratio inside vs. outside droplets” value in series [6] worked out at 380.

B3: lamellipodin C-terminal domain fragment LPD^850–1250 with C-terminal His6 tag (domain or fragment, UniProt Q70E73 850-1250, looked up)
chain: PPPSPLSPVPSVVKQIASQFPPPPTPPAMESQPLKPVPANVAPQSPPAVKAKPKWQPSSIPVPSPDFPPPPPESSLVFPPPPPSPVPAPPPPPPPTASPTPDKSGSPGKKTSKTSSPGGKKPPPTPQRNSSIKSSSGAEHPEPKRPSVDSLVSKFTPPAESGSPSKETLPPPAAPPKPGKLNLSGVNLPGVLQQGCVSAKAPVLSGRGKDSVVEFPSPPSDSDFPPPPPETELPLPPIEIPAVFSGNTSPKVAVVNPQPQQWSKMSVKKAPPPTRPKRNDSTRLTQAEISEQPTMATVVPQVPTSPKSSLSVQPGFLADLNRTLQRKSITRHGSLSSRMSRAEPTATMDDMALPPPPPELLSDQQKAGYGGSHISGYATLRRGPPPAPPKRDQNTKLSRDW
modifications: Alexa 647 succinimidyl ester on the labelled fraction
notes: Synthesized and cloned into pGEX6p1 by Biomatik; also called LPD C-terminal domain; source: E. coli BL21-CodonPlus(DE3)-RIL, purified (Ni-NTA agarose, cation exchange); not shown: His6, C-terminal, kept
With B3, in series [4], the “threshold endophilin concentration for LLPS (10% PEG) in the presence of 10 µM client (10 µM without client)” value was not above 5 µM. Further, the “apparent partition coefficient (Kapp)” value in series [5] worked out at 515.

B4: full-length human amphiphysin 1 (natural protein, UniProt P49418 1-695, looked up)
chain: MADIKTGIFAKNVQKRLNRAQEKVLQKLGKADETKDEQFEEYVQNFKRQEAEGTRLQRELRGYLAAIKGMQEASMKLTESLHEVYEPDWYGREDVKMVGEKCDVLWEDFHQKLVDGSLLTLDTYLGQFPDIKNRIAKRSRKLVDYDSARHHLEALQSSKRKDESRISKAEEEFQKAQKVFEEFNVDLQEELPSLWSRRVGFYVNTFKNVSSLEAKFHKEIAVLCHKLYEVMTKLGDQHADKAFTIQGAPSDSGPLRIAKTPSPPEEPSPLPSPTASPNHTLAPASPAPARPRSPSQTRKGPPVPPLPKVTPTKELQQENIISFFEDNFVPEISVTTPSQNEVPEVKKEETLLDLDFDPFKPEVTPAGSAGVTHSPMSQTLPWDLWTTSTDLVQPASGGSFNGFTQPQDTSLFTMQTDQSMICNLAESEQAPPTEPKAEEPLAAVTPAVGLDLGMDTRAEEPVEEAVIIPGADADAAVGTLVSAAEGAPGEEAEAEKATVPAGEGVSLEEAKIGTETTEGAESAQPEAEELEATVPQEKVIPSVVIEPASNHEEEGENEITIGAEPKETTEDAAPPGPTSETPELATEQKPIQDPQPTPSAPAMGAADQLASAREASQELPPGFLYKVETLHDFEAANSDELTLQRGDVVLVVPSDSEADQDAGWLVGVKESDWLQYRDLATYKGLFPENFTRRLD
modifications: Alexa 488 C5-maleimide
notes: amphiphysin 1, human, full length; Plasmid from Pietro De Camilli's lab; also called Amph1; Amph1-Alexa 488
Take B4: the “threshold endophilin concentration for LLPS (10% PEG) in the presence of 10 µM client (10 µM without client)” value in series [4] was 30 µM. Besides, the “apparent partition coefficient (Kapp)” value in series [5] is 352.

B5: third intracellular loop (TIL) of the human β1-adrenergic receptor (aa 246–325) (domain or fragment, UniProt P08588 246-325, looked up)
chain: RVFREAQKQVKKIDSCERRFLGGPARPPSPSPSPVPAPAPPPGPPRPAAAAATAPLANGRAGKRRPSRLVALREQKALKT
modifications: Alexa 488 (5-SDP ester) at the N-terminal on the labelled fraction
notes: β1-adrenergic receptor, human, third intracellular loop, 80 amino acids, aa 246–325; Cloned in pGEX6p1; GST cleaved by PreScission protease; also called TIL-Alexa 488; source: E. coli BL21-CodonPlus(DE3)-RIL, purified (GST Trap, cation exchange)
Turning to B5, the “threshold endophilin concentration for LLPS (10% PEG) in the presence of 10 µM client (10 µM without client)” value in series [4] was not above 5 µM. Moreover, the “apparent partition coefficient (Kapp)” value in series [5] was determined as 138. For B6, in series [6], the “fluorescence intensity ratio inside vs. outside droplets” value is 480.
